From US20120282279A1 (COVX TECHNOLOGIES IRELAND, published 2012)

Target: FGF21 cell surface receptor composed of FGFR1c and β-Klotho (on the cells of the bioactivity assays) (UniProt P16092 22-822; Q99N32 1-1043, limits assumed)
Experiment: cell-based or functional assay

Chain of FGF21 cell surface receptor composed of FGFR1c and β-Klotho (on the cells of the bioactivity assays) (P16092 22-822 limits assumed, chain 1 of 2): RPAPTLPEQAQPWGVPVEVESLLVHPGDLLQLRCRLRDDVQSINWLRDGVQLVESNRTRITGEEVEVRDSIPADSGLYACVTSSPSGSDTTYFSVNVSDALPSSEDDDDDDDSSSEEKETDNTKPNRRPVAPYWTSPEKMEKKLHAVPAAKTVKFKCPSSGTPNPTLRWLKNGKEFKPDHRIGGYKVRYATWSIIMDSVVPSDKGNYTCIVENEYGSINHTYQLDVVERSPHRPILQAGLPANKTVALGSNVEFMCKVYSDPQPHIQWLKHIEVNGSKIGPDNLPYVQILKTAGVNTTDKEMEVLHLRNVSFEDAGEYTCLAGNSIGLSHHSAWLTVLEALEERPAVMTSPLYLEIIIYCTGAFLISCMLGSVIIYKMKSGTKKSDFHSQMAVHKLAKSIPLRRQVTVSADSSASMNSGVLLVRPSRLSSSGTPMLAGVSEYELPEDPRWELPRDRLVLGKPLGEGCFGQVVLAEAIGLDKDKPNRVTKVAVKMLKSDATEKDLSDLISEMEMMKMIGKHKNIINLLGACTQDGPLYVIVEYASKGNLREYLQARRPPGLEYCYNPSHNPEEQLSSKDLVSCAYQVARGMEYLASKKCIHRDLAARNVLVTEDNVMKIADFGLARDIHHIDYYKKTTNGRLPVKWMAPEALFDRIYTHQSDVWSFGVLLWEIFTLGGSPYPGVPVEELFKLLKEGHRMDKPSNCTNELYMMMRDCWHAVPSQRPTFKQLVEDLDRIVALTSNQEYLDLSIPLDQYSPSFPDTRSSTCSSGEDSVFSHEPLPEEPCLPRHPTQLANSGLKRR
Chain of FGF21 cell surface receptor composed of FGFR1c and β-Klotho (on the cells of the bioactivity assays) (Q99N32 whole entry, chain 2 of 2): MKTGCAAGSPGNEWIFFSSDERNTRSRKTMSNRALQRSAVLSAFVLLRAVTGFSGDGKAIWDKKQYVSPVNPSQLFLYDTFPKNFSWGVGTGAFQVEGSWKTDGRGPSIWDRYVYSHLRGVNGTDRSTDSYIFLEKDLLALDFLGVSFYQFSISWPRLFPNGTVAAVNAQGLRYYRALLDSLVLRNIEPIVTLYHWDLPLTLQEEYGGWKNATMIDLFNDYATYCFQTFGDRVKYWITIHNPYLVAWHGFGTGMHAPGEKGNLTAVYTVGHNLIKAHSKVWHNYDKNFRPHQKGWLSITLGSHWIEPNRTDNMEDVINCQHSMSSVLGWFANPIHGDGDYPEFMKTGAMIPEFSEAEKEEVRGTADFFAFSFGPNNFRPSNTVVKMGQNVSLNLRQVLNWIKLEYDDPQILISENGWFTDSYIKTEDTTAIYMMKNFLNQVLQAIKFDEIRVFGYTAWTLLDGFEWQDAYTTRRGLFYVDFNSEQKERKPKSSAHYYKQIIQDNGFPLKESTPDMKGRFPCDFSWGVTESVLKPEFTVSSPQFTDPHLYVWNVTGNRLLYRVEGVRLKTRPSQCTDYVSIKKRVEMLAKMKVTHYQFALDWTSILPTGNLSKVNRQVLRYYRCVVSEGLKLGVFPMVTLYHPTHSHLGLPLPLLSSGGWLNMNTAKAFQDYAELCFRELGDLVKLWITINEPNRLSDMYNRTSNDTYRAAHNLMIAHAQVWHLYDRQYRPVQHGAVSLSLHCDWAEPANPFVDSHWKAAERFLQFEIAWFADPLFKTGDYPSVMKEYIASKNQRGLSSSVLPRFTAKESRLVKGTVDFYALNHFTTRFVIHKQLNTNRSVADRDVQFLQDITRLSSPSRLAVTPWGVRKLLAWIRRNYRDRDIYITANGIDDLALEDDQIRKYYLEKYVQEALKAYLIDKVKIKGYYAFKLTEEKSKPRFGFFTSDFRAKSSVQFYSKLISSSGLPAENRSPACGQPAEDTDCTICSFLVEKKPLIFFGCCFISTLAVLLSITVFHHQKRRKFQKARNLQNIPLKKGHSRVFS

B1: FGF21ΔH (ligand)
chain: PIPDSSPLLQFGGQVRQRYLYTDDAQQTEAHLEIREDGTVGGAADQSPESLLQLKALKPGVIQILGVKTSRFLCQRPDGALYGSLHFDPEACSFRELLLEDGYNVYQSEAHGLPLHLPGNKSPHRDPAPRGPARFLPLPGLPPAPPEPPGILAPQPPDVGSSDPLSMVGPSQGRSPSYAS
Glut1 Taqman unconjugated Protein EC50: 2.3 nM
